Reference: article PMC6163214, “Etoposide-Induced Apoptosis in Cancer Cells Can Be Reinforced by an Uncoupled Link between Hsp70 and Caspase-3” (International Journal of Molecular Sciences, 2018)
Each block holds one compound with its values, some of them ahead of it.

What was measured:
[1] = target: Caspase-3 (human (endogenous in U-937)) (UniProt P42574); test: co-IP; as a4, but biotinylated Hsp70 pretreated with 32 µM BT44
Hsp70 = target: T1, Hsp70 (Homo sapiens, UniProt P0DMV8); test: microscale thermophoresis with NT-647-labeled purified Hsp70; supported by DARTS and substrate-binding assay
T1 construct: gene HSPA1A
T1 sequence (P0DMV8 2-641): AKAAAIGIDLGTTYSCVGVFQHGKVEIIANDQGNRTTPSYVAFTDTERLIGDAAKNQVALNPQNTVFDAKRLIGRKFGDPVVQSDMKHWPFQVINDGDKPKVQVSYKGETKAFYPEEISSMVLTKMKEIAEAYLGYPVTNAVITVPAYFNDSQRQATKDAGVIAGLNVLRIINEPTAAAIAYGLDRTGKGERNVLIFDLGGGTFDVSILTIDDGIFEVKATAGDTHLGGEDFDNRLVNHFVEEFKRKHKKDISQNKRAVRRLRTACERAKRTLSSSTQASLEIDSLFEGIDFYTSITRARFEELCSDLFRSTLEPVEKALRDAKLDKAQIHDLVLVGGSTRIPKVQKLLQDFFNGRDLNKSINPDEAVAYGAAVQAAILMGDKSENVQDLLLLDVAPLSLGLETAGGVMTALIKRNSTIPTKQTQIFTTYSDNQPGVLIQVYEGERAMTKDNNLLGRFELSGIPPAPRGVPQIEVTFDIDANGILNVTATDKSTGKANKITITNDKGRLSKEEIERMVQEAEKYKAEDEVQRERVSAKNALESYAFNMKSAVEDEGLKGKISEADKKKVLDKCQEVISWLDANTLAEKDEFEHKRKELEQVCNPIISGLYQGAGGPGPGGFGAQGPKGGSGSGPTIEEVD

[2] = target: Caspase-3 (human (endogenous in U-937)) (UniProt P42574); test: ELISA; same competitive protein-protein interaction assay, read as competition: cellular Hsp70 of the lysate (raised by heat shock or hsp70 transfection) holds Caspase-3 of the lysate away from the immobilised pure Hsp70

Sequence of Caspase-3 (human (endogenous in U-937)) (P42574 whole entry): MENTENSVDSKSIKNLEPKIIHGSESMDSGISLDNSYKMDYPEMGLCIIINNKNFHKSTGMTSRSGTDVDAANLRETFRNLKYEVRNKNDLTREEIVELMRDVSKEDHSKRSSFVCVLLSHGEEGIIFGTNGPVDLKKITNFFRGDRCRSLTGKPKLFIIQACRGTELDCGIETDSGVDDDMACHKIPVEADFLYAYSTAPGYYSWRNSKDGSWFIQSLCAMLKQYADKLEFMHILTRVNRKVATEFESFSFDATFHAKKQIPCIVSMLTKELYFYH
Sequence of Cellular Hsp70 of U-937 cells (P0DMV8 whole entry): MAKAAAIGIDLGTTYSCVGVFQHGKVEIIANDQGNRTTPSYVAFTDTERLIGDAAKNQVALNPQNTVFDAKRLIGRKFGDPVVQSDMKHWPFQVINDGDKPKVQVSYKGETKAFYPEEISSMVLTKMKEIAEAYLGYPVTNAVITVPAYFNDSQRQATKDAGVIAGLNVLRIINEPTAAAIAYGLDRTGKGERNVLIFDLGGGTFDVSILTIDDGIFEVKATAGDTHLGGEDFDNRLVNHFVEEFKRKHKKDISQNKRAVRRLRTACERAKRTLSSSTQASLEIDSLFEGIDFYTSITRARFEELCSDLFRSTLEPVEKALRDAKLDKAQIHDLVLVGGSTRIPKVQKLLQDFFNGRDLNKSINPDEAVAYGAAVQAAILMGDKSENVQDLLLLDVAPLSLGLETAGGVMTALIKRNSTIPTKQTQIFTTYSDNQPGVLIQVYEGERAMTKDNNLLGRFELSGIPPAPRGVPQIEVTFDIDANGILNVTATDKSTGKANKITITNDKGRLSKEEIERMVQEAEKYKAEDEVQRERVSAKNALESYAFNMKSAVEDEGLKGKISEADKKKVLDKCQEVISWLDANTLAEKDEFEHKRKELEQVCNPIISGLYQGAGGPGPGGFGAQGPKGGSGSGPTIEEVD
Sequence of Biotinylated Hsp70 (P0DMV8 whole entry): as above

- fold lower amount bound with BT44 than without BT44 [1]: 10 fold
Compound: Biotinylated Hsp70 (from UniProt P0DMV8 1-641) (natural protein)

- Kd (Hsp70): 5.2 ± 0.3 µM
Compound: CCc1cc(-c2n[nH]cc2-c2ccc3c(c2)OCO3)c(O)cc1OC1OC(CO)C(O)C(O)C1O (stereo not drawn) [BT44, 2-[4-(4-Benzo[1,3]dioxol-5-yl-1H-pyrazol-3-yl)-2-ethyl-5-hydroxy-phenoxy]-6-hydroxymethyl-tetrahydro-pyran-3,4,5-triol]

- percent decrease of Caspase-3 bound to immobilized Hsp70 (against U-937wt cells treated with etoposide alone) [2]: 35 to 50%
Compound: Cellular Hsp70 of U-937 cells (from UniProt P0DMV8 1-641) (natural protein)
